This is an account of results in patent US20160152703A1 (PERSEUS PROTEOMICS, published 2016).

The target of assay [1] is T1, human CDH3 (P-cadherin), endogenous, on cancer cells (human, UniProt P22223 108-829).
T1 construct: Endogenous CDH3 on NCI-H358 and other human cancer cells or tissues; also called CDH3 on NCI-H358; CDH3-expressing cancer cell line
Briefly: FACS competition on a CDH3-expressing cell line; competitor: Alexa488-labeled NITE BP-989 antibody.

For assay [2], the target named is T2, full-length human CDH3 with myc-His tag, forcibly expressed on CHO cells (EXZ1501) (human, UniProt P22223 108-829).
T2 construct: Clones were selected by Western blotting with an anti-c-Myc antibody; also called CDH3 full-length expression CHO cell line (EXZ1501); CHO cells with forcible expression of CDH3; not shown: C-terminal myc-His tag from vector pEF4/myc-HisB
Briefly: flow cytometry on CHO cells with forcible expression of CDH3.

Assay [3] concerns the target T1, human CDH3 (P-cadherin), endogenous, on …. Description: FACS competition on NCI-H358; competitor: Alexa488-labeled NITE BP-989 antibody; IC50 relative to the antibody without drug, average DAR 0 to 8. Here is the method: The influence of humanization on affinity was confirmed by carrying out a competition test using a flow cytometer (FACS). A test antibody whose dilution series had been prepared, a cell line that expressed CDH3, and a certain amount of Amaxa488-labeled antibody that was competitive with the test antibody were allowed to coexist, and the reaction was then carried out at room temperature for 1 hour. Thereafter, the reaction product was washed with a FACS solution, and FACS measurement was then carried out. […] The obtained IC50 value was defined as an index for affinity.
The influence of the average drug-to-antibody ratio (DAR) of the drug binding to the humanized antibody of the present invention on affinity was confirmed by the same competition test using FACS as that in Example 25. The antibody drug conjugate was prepared in the range of average DAR of 0 to 8 by the method described in Example 15. The DAR was quantified by the method described in Example 16.
As a cell line, NCI-H358 was used. […] By the same FACS competition test as that described in Example 25, each IC50 value was calculated as an index for affinity.

Assay [4] has the same target. Description: flow cytometry on NCI-H358 cells, antibody at 10 ug/mL. On the procedure:
A cell line that would be used as a reaction target (an NCI-H358 cell line that had been confirmed to express CDH3 at a high level) was treated with 2 mM EDTA-PBS, so that the cells were removed from a culture plate, and the obtained cells were then suspended in a FACS solution to a cell density of 1×10⁶ cells/mL. This cell suspension was seeded on a 96-well plate, resulting in an amount of 50 μL/well, and the purified chimeric antibody was then added to the plate to result in a concentration of 10 μg/mL, followed by performing a reaction at 4° C. for 60 minutes. Thereafter, the reaction mixture was washed with a FACS solution (150 μL/well) two times, and 4 μg/ml AlexaFlour488-labeled anti-human IgG/goat F(ab′)₂ (Invitrogen) was then added to the resultant. The obtained mixture was reacted at 4° C. for 30 minutes. Thereafter, the cells were washed with a FACS solution two times, and was then subjected to flow cytometry.

T1 sequence (P22223 108-829 limits assumed): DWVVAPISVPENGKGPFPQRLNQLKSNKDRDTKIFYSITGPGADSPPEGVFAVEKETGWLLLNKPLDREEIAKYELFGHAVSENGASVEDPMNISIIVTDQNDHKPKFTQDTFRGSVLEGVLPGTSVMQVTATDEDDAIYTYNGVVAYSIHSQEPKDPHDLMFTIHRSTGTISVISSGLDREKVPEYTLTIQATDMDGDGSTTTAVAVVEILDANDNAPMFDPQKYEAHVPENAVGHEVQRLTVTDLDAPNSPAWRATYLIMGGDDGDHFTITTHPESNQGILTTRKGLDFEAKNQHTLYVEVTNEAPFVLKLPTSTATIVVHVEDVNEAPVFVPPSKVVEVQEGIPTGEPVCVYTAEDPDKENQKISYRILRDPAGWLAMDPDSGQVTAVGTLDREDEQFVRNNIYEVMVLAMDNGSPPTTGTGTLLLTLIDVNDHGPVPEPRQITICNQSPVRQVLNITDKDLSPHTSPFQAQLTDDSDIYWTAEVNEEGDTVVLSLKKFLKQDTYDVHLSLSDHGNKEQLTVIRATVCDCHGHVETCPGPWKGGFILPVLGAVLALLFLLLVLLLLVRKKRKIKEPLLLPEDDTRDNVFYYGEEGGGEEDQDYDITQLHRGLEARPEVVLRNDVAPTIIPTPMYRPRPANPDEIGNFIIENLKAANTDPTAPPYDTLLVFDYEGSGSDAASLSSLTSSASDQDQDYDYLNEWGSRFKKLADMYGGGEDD
T2 sequence (P22223 108-829): as the sequence (P22223 108-829 limits assumed) above

B1: PPAT-076-44Hd (antibody, V domains shown)
VH: QVQLVESGGGVVQPGRSLRLSCAASGFSLTSYGVHWVRQAPGKGLEWVGVIWSGGSTDYADSVKGRFTISKDNSKNTVYLQMNSLRAEDTAVYYCARNSNNGFAYWGQGTLVTVSS
VL: DIQLTQSPSSLSASVGDRVTITCRASQNIYSNLAWYQQKPGKAPKLLVYAAKNLASGVPSRFSGSGSGTDFTLTISSLQPEDFATYYCQHFYDTPWTFGQGTKVEIK
notes: also called anti-CDH3 humanized antibody (human germline framework, reshaped); humanized antibody
In the case of B1, the binding result in assay [1] and in assay [2] was “binds” throughout.

B2: PPAT-076-44Hd, to which a drug is bound (DM1 conjugate) (antibody, human IgG1, V domains shown)
VH: QVQLVESGGGVVQPGRSLRLSCAASGFSLTSYGVHWVRQAPGKGLEWVGVIWSGGSTDYADSVKGRFTISKDNSKNTVYLQMNSLRAEDTAVYYCARNSNNGFAYWGQGTLVTVSS
VL: DIQLTQSPSSLSASVGDRVTITCRASQNIYSNLAWYQQKPGKAPKLLVYAAKNLASGVPSRFSGSGSGTDFTLTISSLQPEDFATYYCQHFYDTPWTFGQGTKVEIK
modifications: DM1 bound through Sulfo-SMCC; sites not stated
notes: Human IgG1/kappa; also called CDH3 antibody drug conjugate of PPAT-076-44Hd; drug conjugate of PPAT-076-44Hd
For B2, the binding result in assay [3] is given as “binds”.

B3: PPAT-076-44Hb (antibody, V domains shown)
VH: EVQLVESGGGLVQPGGSLRLSCAASGFSLTSYGVHWVRQAPGKGLEWVAVIWSGGSTDYADSVKGRFTISKDNSKNTVYLQMNSLRAEDTAVYYCARNSNNGFAYWGQGTLVTVSS
VL: DIQMTQSPSSLSASVGDRVTITCRASQNIYSNLAWYQQKPGKAPKLLVYAAKNLASGVPSRFSGSGSGTDFTLTISSLQPEDFATYYCQHFYDTPWTFGQGTKVEIK
notes: also called anti-CDH3 humanized antibody (human consensus framework, reshaped)
As to B3, the binding result in assay [2] and in assay [4] was “binds” in each case.

B4: PPAT-076-44Hb, to which a drug is bound (DM1 conjugate) (antibody, human IgG1, V domains shown)
VH: EVQLVESGGGLVQPGGSLRLSCAASGFSLTSYGVHWVRQAPGKGLEWVAVIWSGGSTDYADSVKGRFTISKDNSKNTVYLQMNSLRAEDTAVYYCARNSNNGFAYWGQGTLVTVSS
VL: DIQMTQSPSSLSASVGDRVTITCRASQNIYSNLAWYQQKPGKAPKLLVYAAKNLASGVPSRFSGSGSGTDFTLTISSLQPEDFATYYCQHFYDTPWTFGQGTKVEIK
modifications: DM1 bound through Sulfo-SMCC; sites not stated
notes: Human IgG1/kappa; also called CDH3 antibody drug conjugate of PPAT-076-44Hb; humanized antibody drug conjugate
As for B4, in assay [3], the binding result is reported as “binds”.
